According to article PMC6586891, “On the molecular and cellular effects of omeprazole to further support its effectiveness as an antigiardial drug” (Scientific Reports, 2019):

Substrate: O=CC(O)COP(=O)(O)O
Experiment: Michaelis-Menten kinetics of purified enzyme (Km), coupled alpha-GDH/NADH assay
Type: biochemical, Giardia duodenalis

B1: Giardia lamblia triosephosphate isomerase (GlTIM WT) (Giardia duodenalis) (protein)
chain: MPARRPFIGGNFKCNGSLDFIKSHVAAIAAHKIPDSVDVVIAPSAVHLSTAIAANTSKQLRIAAQNVYLEGNGAWTGETSVEMLQDMGLKHVIVGHSERRRIMGETDEQSAKKAKRALEKGMTVIFCVGETLDERKANRTMEVNIAQLEALGKELGESKMLWKEVVIAYEPVWSIGTGVVATPEQAEEVHVGLRKWFAEKVCAEGAQHIRIIYGGSANGSNCEKLGQCPNIDGFLVGGASLKPEFMTMIDILTKTRT
notes: recombinant His-tag/TEV GlTIM WT
- Km: 780 ± 60 µM
- kcat: 7670 ± 267 s⁻¹
- kcat/Km: 9.83e+06 M⁻¹ s⁻¹
